{
  "source": "paper PMC4365169",
  "about": "(Nature Communications, 2014)",
  "target": "actin filaments (F-actin, rabbit skeletal muscle) (rabbit, UniProt P68135 1-377)",
  "experiment": "co-sedimentation",
  "data": [
    {"binder": "GFP–TipAct (other) DERDRVQKKTFTKWVNKHLMKVRKHINDLYEDLRDGHNLISLLEVLSGIKLPREKGRMRFHRLQNVQIALDFLKQRQVKLVNIRNDDITDGNPKLTLGLIWTIILHFQISDIYISGESGDMSAKEKLLLWTQKVTAGYTGIKCTNFSSCWSDGKMFNALIHRYRPDLVDMERVQIQSNRENLEQAFEVAERLGVTRLLDAEDVDVPSPDEKSVITYVSSIYDAFPKVPEGGEGEMANRLAGLENSLESEKVSREQLIKQKDQLNSLLASLESEGAEREKRLRELEAKLDETLKNLELEKLARMELEARLAKTEKDRAILELKLAEAIDEKSKLEESSAAGGQGNSRRGLNKPSKIPTMSKKTTTASPRTPGPKR", "values": [
      {"measurement": "Kd", "result": "~5", "unit": "µM"}
    ]}
  ]
}
